This note sets out measurements from publication PMC11633383, “Role of VapBC4 toxin-antitoxin system of Sulfolobus acidocaldarius in heat stress adaptation” (mBio, 2024).

This assay addresses T1, VapC4 toxin (Saci_1813) with a C-terminal histidine tag (Sulfolobus acidocaldarius DSM639, UniProt Q4J7W2 1-140, FITC (Alexa-488) fluorescent probe, site not stated, F/P ratio approximately 0.5 (in the FRET assay only)).
T1 construct: also called Saci VapC4; pAG153; not shown: His tag, C-terminal, kept
T1 sequence (looked up): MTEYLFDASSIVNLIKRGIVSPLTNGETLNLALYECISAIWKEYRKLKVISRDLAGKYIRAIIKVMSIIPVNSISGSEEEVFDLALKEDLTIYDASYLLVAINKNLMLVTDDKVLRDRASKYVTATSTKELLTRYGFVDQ
As to the kind of experiment: FRET or BRET; FITC-labelled VapC4 (100 nM, donor) titrated with TRITC-labelled VapB4 (25-2,000 nM, acceptor); excitation 495 nm, FITC emission at 520 nm, 60°C; fit to a hyperbolic binding equation. Conditions: both partners purified.

B1: VapB4 antitoxin (Saci_1812) with a C-terminal histidine tag (natural protein, Sulfolobus acidocaldarius DSM639, UniProt Q4J7W4 1-77, looked up)
chain: MDSSGYVTISAKVPRELKELMDKYGIKPGPVIRKALEEEVRRRAIQELEKELKDLKEKSQISDEDVARLIREDRESR
modifications: TRITC (Alexa-532) fluorescent probe, site not stated, F/P ratio approximately 0.5 (in the FRET assay only)
notes: Unlabelled in the RNase neutralisation assay, TRITC-labelled in FRET; also called pAG154; source: E. coli BL21(DE3)-RIL, purified (Ni2+-NTA, dialysis)
As for B1, the Kd was determined as 40 ± 2.2 nM.
